Key:
[1] = biological target: T1, recombinant VEGF MiniTrap (dimer) MT5 (human); assay: affinity chromatography on the mAb1 column, repeated run, 19.6 mg MT5 loaded
T1 construct: also called VEGF MiniTrap 5
T1 chain: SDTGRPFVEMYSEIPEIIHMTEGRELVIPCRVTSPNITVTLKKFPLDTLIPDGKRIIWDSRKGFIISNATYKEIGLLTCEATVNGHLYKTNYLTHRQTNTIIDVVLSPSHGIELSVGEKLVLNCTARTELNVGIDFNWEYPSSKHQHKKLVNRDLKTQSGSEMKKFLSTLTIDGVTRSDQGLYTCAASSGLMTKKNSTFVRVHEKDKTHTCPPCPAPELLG

[2] = biological target: T1, recombinant VEGF MiniTrap (dimer) MT5; assay: affinity chromatography on the mAb1 column, repeated run, 19.7 mg MT5 loaded

Eluate [1]: 2 mg
Eluate [2]: 1.8 mg
B1: mAb1 (a mouse anti-VEGFR1 mAb human IgG1) (antibody)
heavy: not shown
light: DIQMTQSPSSLSASLGGKVTITCTTSQDSNNYIAWYQHKPGKGPRLLIHYASTLQPGIPSRFSGSGSGRDYSFSISNLEPEDIATYFCLQYDYLWTFGGGTKLELKRTVAAPSVFIFPPSDEQLKSGTASVVCLLNNFYPREAKVQWKVDNALQSGNSQESVTEQDSKDSTYSLSSTLTLSKADYEKHKVYACEVTHQGLSSPVTKSFNRGEC

From patent US20210206832A1 (Regeneron, published 2021)
